In publication PMC2797330 one finds % of cells positive (gp120 bound to cells, detected with HIVIG) data, which are given here for 1 substance.

This experiment addresses CD4 on uninfected CEM-4 cells (human (endogenous in CEM-T4)) (UniProt P01730). Put plainly: flow cytometry on cells; uninfected CEM-4 cells incubated 2 h at 4°C with gp120MN (0.24 µg/ml), washed; bound gp120 detected with HIVIG (10 µg/ml) and anti-human secondary antibody; % of cells fluorescing. (Flow cytometry measures light scatter and fluorescence of single cells or particles in a stream.)

On to recombinant gp120MN (natural protein), for which the % of cells positive (gp120 bound to cells, detected with HIVIG) is 96.2 % positive.
